The source of these data is PMC10110952.

Test [1] concerns the target streptokinase (Streptococcus pyogenes) (UniProt P10520). Nature of the test: binding saturation. As to conditions: cited from earlier work.
The target in test [2] is PAM, plasminogen-binding group A Streptococcus (GAS) M-protein (S. pyogenes) (UniProt P49054). Nature of the test: SPR; PAM amine-coupled to a CM-5 chip (250 RU); hPg variants injected at 0.175-20 nM (up to 800 nM hPg [D219N]), multicycle kinetics, 180 s association, 300 s dissociation; HBS-EP+ (10 mM Na-Hepes/150 mM NaCl, 3 mM EDTA/0.05% polysorbate-20, pH 7.4), 25°C, Biacore X100; 1:1 Langmuir model.

A further test addresses hPg [D^219N] (human). Nature of the test: SPR; each hPg variant amine-coupled to a CM-5 chip (~1200 RU); SK injected at 0.625-100 nM, multicycle kinetics, 90 s association, 120 s dissociation; HBS-EP+/50 μM NPGB, 25°C, Biacore X100; 1:1 Langmuir model. (Surface plasmon resonance follows binding to a sensor surface in real time, without labels.)
Test [3] has as its target wild-type (WT) Glu^1-hPg (human plasminogen) (human). Described as above.
In another test the target is hPg [D^518N] (human). Described as above.
The target of another test is hPg [D^413N] (human). The description is as above.
For test [4], the target named is hPg [D^139,413,518N] (human). Described as above.
The target of the next test is hPg [D^139N] (human). Described as above.
A further test has as its target hPg [K^708A] (human). The description is as above.
Test [5] deals with PAM, plasminogen-binding group A Streptococcus (GAS) M-protein (S. pyogenes) (UniProt P49054).

For orientation: Kd means a measure of binding affinity in units of concentration. The term koff denotes a measure of how fast the partners let go of each other. Usually kon stands for the rate constant with which the complex forms.

UniProt P49054, sequence (P49054 30-384): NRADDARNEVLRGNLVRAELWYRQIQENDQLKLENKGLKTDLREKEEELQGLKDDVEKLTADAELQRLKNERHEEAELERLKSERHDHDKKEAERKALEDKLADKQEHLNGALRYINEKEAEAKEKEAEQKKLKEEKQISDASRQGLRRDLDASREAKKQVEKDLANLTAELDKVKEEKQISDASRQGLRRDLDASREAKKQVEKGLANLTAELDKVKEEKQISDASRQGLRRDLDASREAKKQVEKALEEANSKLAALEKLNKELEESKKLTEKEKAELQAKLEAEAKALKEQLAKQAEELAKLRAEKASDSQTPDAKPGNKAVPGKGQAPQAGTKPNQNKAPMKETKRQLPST
UniProt P10520, sequence (P10520 27-440): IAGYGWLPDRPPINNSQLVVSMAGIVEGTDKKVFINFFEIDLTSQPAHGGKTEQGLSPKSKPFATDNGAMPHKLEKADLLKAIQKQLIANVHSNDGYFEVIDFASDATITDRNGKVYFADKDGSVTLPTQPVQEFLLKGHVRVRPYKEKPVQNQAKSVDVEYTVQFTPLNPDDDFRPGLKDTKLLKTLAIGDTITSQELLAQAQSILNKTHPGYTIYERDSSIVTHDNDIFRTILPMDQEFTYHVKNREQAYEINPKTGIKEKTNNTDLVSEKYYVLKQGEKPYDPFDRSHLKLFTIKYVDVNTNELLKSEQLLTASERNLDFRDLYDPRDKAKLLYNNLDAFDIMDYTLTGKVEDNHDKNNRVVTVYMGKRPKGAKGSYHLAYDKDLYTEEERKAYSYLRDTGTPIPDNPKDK

For the substance Glu1-plasminogen (from UniProt P00747), in [1], the Kd is 500 pM.

Take hPg [D^413N] (natural protein): in test [2], the Kd was 700 pM, the koff is 0.00094 s⁻¹ and the kon amounted to 1.34e+06 M⁻¹ s⁻¹.

Regarding hPg [K^708A] (natural protein), in [2], the Kd was found to be 1200 pM, the koff turned out to be 0.0012 s⁻¹ and the kon was determined as 970000 M⁻¹ s⁻¹.

As to hPg [D^518N] (natural protein), in test [2], the Kd is 6700 pM, the koff worked out at 0.0024 s⁻¹ and the kon came out at 360000 M⁻¹ s⁻¹.

Take streptokinase (SK) (natural protein): the Kd with hPg [D^219N] (human) was 300 pM; in test [3], 290 pM; with hPg [D^518N] (human), 270 pM; in the test with hPg [D^413N] (human) it was 260 pM; in [4], 2100 pM; with hPg [D^139N] (human), 280 pM. In addition, the Kd in the test with hPg [K^708A] (human) is 210 pM. The koff with hPg [D^219N] (human) worked out at 0.000466 s⁻¹; in [3] it was 0.000405 s⁻¹; in the test with hPg [D^518N] (human), 0.00034 s⁻¹; with hPg [D^413N] (human), 0.000302 s⁻¹; in test [4] it was 0.000449 s⁻¹; with hPg [D^139N] (human), 0.000302 s⁻¹. Further, in the test with hPg [K^708A] (human), the koff is 0.000282 s⁻¹. The kon in the test with hPg [D^219N] (human) was 1.55e+06 M⁻¹ s⁻¹; in test [3], 1.39e+06 M⁻¹ s⁻¹; with hPg [D^518N] (human), 1.29e+06 M⁻¹ s⁻¹; with hPg [D^413N] (human) it was 1.22e+06 M⁻¹ s⁻¹; in test [4] it was 206000 M⁻¹ s⁻¹; with hPg [D^139N] (human), 1.13e+06 M⁻¹ s⁻¹. This substance gave a kon in the test with hPg [K^708A] (human) of 1.36e+06 M⁻¹ s⁻¹.

Turning to “wild-type (WT) Glu^1-hPg (human plasminogen) (natural protein)”, the rate of SK-mediated activation of hPg to hPm (S2251 hydrolysis), 250 nM PAM against 0 nM PAM in test [5] turned out to be 4 fold. Moreover, in [2], the Kd turned out to be 5400 pM, the koff came to 0.0013 s⁻¹ and the kon is 240000 M⁻¹ s⁻¹.

In test [2], hPg [D^139,413,518N] (natural protein) returned a Kd of 700 pM, a koff of 0.0017 s⁻¹ and a kon of 2.51e+06 M⁻¹ s⁻¹.

With hPg [D^139N] (natural protein), in test [5], the rate of SK-mediated activation of hPg to hPm (S2251 hydrolysis), 250 nM PAM against 0 nM PAM was found to be 4 fold. In test [2], this substance showed a Kd of 4000 pM, a koff of 0.0016 s⁻¹ and a kon of 410000 M⁻¹ s⁻¹.

Take “mini-plasminogen mini-hPg (lacking K1-K4) (from UniProt P00747)”: the Kd in test [1] was 500 pM.
